Experimental data published in patent US20220380464A1 (Genmab, published 2022).
Positions count from the first letter of the chain named. Numbers in names are those of the source.

B1: UniTE-huCD3-H1L1-H101F-LT41K (antibody, V domains shown)
VH: EVKLVESGGGLVQPGGSLRLSCAASGFTFNTYAMNWVRQAPGKGLEWVARIRSKYNNYATYYADSVKDRFTISRDDSKSSLYLQMNNLKTEDTAMYYCVRFGNFGNSYVSWFAYWGQGTLVTVSS
VL: not shown
notes: Monovalent UniBody-TE format
B2: UniTE-huCD3-H1L1-Y114V-LT41K (antibody, V domains shown)
VH: B1 VH with F101H, Y114V
VL: not shown
B3: UniTE-huCD3-H1L1-Y114M-LT41K (antibody, V domains shown)
VH: B1 VH with F101H, Y114M
VL: not shown
notes: Monovalent UniBody-TE format

Experiments:
[1] = target: T1, human CD3 on human T cells (human, UniProt P07766 23-207); test: flow cytometry on isolated human T cells, PE anti-human IgG detection
T1 construct: Natural CD3/TCR complex on T cells isolated from human donor buffy coats; The other chains of the complex (CD3γ, CD3δ, CD3ζ, polyclonal TCR) are also present on the cells
Experimental: (§2) T cells were Isolated from a buffy coat fraction of anti-coagulated human donor blood samples and resuspended in PBS/0.1% BSA/0.02% azide at 1.8×10E6 cells/mL. 50 μL of T cell suspension and 50 μL of the antibody dilutions were combined in a 96 well plate on ice, Incubated for 30 min at 4° C. and washed twice with PBS/0.1% BSA/0.02% azide. […] The cells were resuspended in 120 μL PBS/0.1% BSA/0.02% azide and PE geometric Mean Fluorescence Intensity was measured. Binding curves were analyzed using non-linear regression (sigmoidal dose-response with variable slope) using GraphPad Prism V5.04 software (GraphPad Software, San Diego, Calif., USA) and apparent affinity (KD) was derived from the concentration at half-maximal binding.

[2] = target: T1, human CD3 on human T cells; test: flow cytometry on human T cells, PE anti-human IgG, GM-PE
Experimental: as §2

[3] = target: T2, CD3ε27-GSKa (human); test: BLI (Octet HTX), UniTE antibody on anti-human Fc sensors, CD3ε27-GSKa in solution, 1:1 fit
T2 construct: also called Mature CD3ε27-GSKa
Experimental: (§1) Experiments were carried out while shaking at 1000 rpm and at 30° C.

[4] = target: T2, CD3ε27-GSKa; test: BLI (Octet), summary table repeating Table 4
Experimental: as §1

T1 sequence (P07766 23-207 limits assumed): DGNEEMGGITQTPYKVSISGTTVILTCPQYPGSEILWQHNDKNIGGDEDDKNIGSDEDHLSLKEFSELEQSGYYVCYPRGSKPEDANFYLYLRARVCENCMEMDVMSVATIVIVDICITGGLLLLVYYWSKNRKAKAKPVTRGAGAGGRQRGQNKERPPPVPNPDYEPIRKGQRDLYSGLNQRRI
T2 sequence (chain, as listed by the source limits assumed): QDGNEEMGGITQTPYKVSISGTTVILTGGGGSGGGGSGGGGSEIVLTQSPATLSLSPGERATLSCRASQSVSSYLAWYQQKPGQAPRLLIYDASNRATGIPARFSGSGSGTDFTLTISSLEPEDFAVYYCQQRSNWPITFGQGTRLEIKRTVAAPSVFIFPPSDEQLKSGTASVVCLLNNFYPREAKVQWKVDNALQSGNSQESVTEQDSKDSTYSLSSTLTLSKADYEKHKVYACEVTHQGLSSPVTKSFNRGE

Binder | Tcell binding average at 5000ng/ml (Geometric MFI) [1] | binding result [2] | Ka [3] | Kd [3] | Kd [4]
B1 | 641 Geometric MFI | no binding (tested: 5000 ng/mL) |  |  | 
B2 | 6020 Geometric MFI |  | 1.3e+07 M⁻¹ | 75 nM | 75 nM
B3 | 3830 Geometric MFI |  | 1.3e+07 M⁻¹ | 76 nM | 76 nM
